Residue numbers refer to the chain shown, from its start.

The values that follow come from paper doi:10.1101/2024.11.27.625426 (bioRxiv, 2024).

For assay [1], the target named is sNAp of A/Vietnam/1203/2004 (VN04, H5N1) NA (Influenza A virus A/Vietnam/1203/2004 …, UniProt Q6DPL2, stabilised). The assay is described as follows: ELISA. Particulars: both partners purified.
In assay [2] the target is T1, N1-CA09-sNAp, stabilized neuraminidase protein of A/California/04/2009 (H1N1) (Influenza A virus A/California/04/2009 …, stabilised).
T1 chain: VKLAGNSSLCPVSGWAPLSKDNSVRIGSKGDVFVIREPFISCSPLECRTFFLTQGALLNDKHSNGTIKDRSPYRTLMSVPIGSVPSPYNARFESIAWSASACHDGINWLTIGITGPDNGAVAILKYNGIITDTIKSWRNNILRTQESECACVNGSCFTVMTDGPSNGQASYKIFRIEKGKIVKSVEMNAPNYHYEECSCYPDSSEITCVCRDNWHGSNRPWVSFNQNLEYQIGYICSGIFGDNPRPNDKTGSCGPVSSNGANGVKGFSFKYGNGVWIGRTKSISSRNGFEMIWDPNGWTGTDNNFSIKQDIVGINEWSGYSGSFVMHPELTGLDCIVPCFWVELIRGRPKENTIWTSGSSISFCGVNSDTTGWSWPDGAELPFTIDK
The assay is described as follows: cryo-EM structure. Particulars: both partners purified.

B1: NCS.1.1 mAb (IgG) (antibody, V domains shown)
VH: QVQLQESGPRLVKPSETLSLTCSVSGESISSGGYYWTWIRQHPGKGLEWIGNIFDTGSTDYSPSLKTRLTISIDTSKNQFYLRLNSATAADTAVYYCARVGFSLETDRPYYLGLDVWGQGTTVTVSS
VL: DIVMTQSPLSLPVTPGEPASISCRSSQSLLHSNGYTYLDWYLQKPGQSPQLLISFTSNRASGVPDRFSGSGSGTYFTLKISRVEAEDVGVYYCMQAVQTPWTFGQGTKVEIK
notes: copies: 2 + 2
Take B1: the binding result in assay [1] is on record as “binds”.

B2: NCS.1.3 mAb (IgG) (antibody, V domains shown)
VH: B1 VH with N85T
VL: B1 VL with S10T, S54Y, T56A, T99S
notes: copies: 2 + 2
B2: the binding result in assay [1] was “binds”.

B3: NCS.1.1 Fab (Fab, V domains shown)
VH: B1 VH
VL: B1 VL
Take B3: in assay [2], the “stoichiometry N” value was 4 Fabs per NA tetramer.
